Experimental findings from the RNAGym collection of RNA variant scans (doi:10.7554/elife.90254) are described below.

B1: LINE1-mini (parent)
chain: GGCAGAGCUCAACACAGCGUGGCAAAGUGGCUGUGGCUAGACUGCC

The variants in this data set derive from B1. Nature of the data set: self-cleavage, relative activity (ratio to wild type); higher = more cleavage; in vitro, sequencing; the parent is a self-cleaving ribozyme.
On to GGCAGAGCUCAACACAGCGUGGCAAAGUGGCUAUGGCAAGACUGCC [G33A U38A], for which the self-cleavage was 0.13.
The result for GGCAGAGCUCAACACAGCGUGGCAAAGUGGCUAUGGCCAGACUGCC [G33A U38C] reads 0.17; that for GGCAGAGCUCAACACAGCGUGGCAAAGUGGCUAUGGCGAGACUGCC [G33A U38G], 0.03.
The result for GGCAGAGCUCAACACAGCGUGGCAAAGUGGCUCUGGCUAGACAGCC [G33C U43A] reads 0.12; that for GGCAGAGCUCAACACAGCGUGGCAAAGUGGCUCUGGCUAGACCGCC [G33C U43C], 0.03.
For GGCAGAGCUCAACACAGCGUGGCAAAGUGGCUCUGGCUAGACGGCC [G33C U43G], the self-cleavage came to 0.01.
The value for GGCAGAGCUCAACACAGCGUGGCAAAGUGGCUAUGACUAGACUGCC [G33A G36A] was 0.12.
The value for GGCAGAGCUCAACACAGCGUGGCAAAGUGGCUAUGUCUAGACUGCC [G33A G36U] was 0.09; that for GGCAGAGCUCAACACAGCGUGGCAAAGUGGCUAUGCCUAGACUGCC [G33A G36C] was 0.05.
The result for GGCAGAGCUCAACACAGCGUGGCAAAGUGGCUUUGGCUAGACUCCC [G33U G44C] reads 0.06.
In the case of GGCAGAGCUCAACACAGCGUGGCAAAGUGGCUUUGGCUAGACUACC [G33U G44A], the self-cleavage amounted to 0.07.
The result for GGCAGAGCUCAACACAGCGUGGCAAAGUGGCUUUGGCUAGACUUCC [G33U G44U] reads 0.07; that for GGCAGAGCUCAACACAGCGUGGCAAAGUGGCUCUCGCUAGACUGCC [G33C G35C], 0.04; that for GGCAGAGCUCAACACAGCGUGGCAAAGUGGCUCUAGCUAGACUGCC [G33C G35A], 0.04.
The result for GGCAGAGCUCAACACAGCGUGGCAAAGUGGCUCUUGCUAGACUGCC [G33C G35U] reads 0.04.
With GGCAGAGCUCAACACAGCGUGGCAAAGUGGCUCCGGCUAGACUGCC [G33C U34C], the self-cleavage was determined as 0.03.
The value for GGCAGAGCUCAACACAGCGUGGCAAAGUGGCUCGGGCUAGACUGCC [G33C U34G] was 0.07; that for GGCAGAGCUCAACACAGCGUGGCAAAGUGGCUCAGGCUAGACUGCC [G33C U34A] was 0.09.
The value for GGCAGAGCUCAACACAGCGUGGCAAAGUGGCUUUGGCUAGACUGCU [G33U C46U] was 0.07; that for GGCAGAGCUCAACACAGCGUGGCAAAGUGGCUUUGGCUAGACUGCA [G33U C46A] was 0.07.
As for GGCAGAGCUCAACACAGCGUGGCAAAGUGGCUUUGGCUAGACUGCG [G33U C46G], the self-cleavage stood at 0.07.
The value for GGCAGAGCUCAACACAGCGUGGCAAAGUGGCUAUGGCUAGACAGCC [G33A U43A] was 0.12.
The value for GGCAGAGCUCAACACAGCGUGGCAAAGUGGCUAUGGCUAGACGGCC [G33A U43G] was 0.13; that for GGCAGAGCUCAACACAGCGUGGCAAAGUGGCUAUGGCUAGACCGCC [G33A U43C] was 0.05.
The value for GGCAGAGCUCAACACAGCGUGGCAAAGUGGCUCUGGAUAGACUGCC [G33C C37A] was 0.03.
GGCAGAGCUCAACACAGCGUGGCAAAGUGGCUCUGGGUAGACUGCC [G33C C37G]: the self-cleavage worked out at 0.04.
The result for GGCAGAGCUCAACACAGCGUGGCAAAGUGGCUCUGGUUAGACUGCC [G33C C37U] reads 0.05.
The result for GGCAGAGCUCAACACAGCGUGGCAAAGUGGCUUUGGCUGGACUGCC [G33U A39G] reads 0.12.
The result for GGCAGAGCUCAACACAGCGUGGCAAAGUGGCUUUGGCUUGACUGCC [G33U A39U] reads 0.15; that for GGCAGAGCUCAACACAGCGUGGCAAAGUGGCUUUGGCUCGACUGCC [G33U A39C], 0.07.
With GGCAGAGCUCAACACAGCGUGGCAAAGUGGCUCUGGCUCGACUGCC [G33C A39C], the self-cleavage was 0.09.
GGCAGAGCUCAACACAGCGUGGCAAAGUGGCUCUGGCUGGACUGCC [G33C A39G]: the self-cleavage is 0.03.
The result for GGCAGAGCUCAACACAGCGUGGCAAAGUGGCUCUGGCUUGACUGCC [G33C A39U] reads 0.05; that for GGCAGAGCUCAACACAGCGUGGCAAAGUGGCUUUGCCUAGACUGCC [G33U G36C], 0.05; that for GGCAGAGCUCAACACAGCGUGGCAAAGUGGCUUUGACUAGACUGCC [G33U G36A], 0.08.
The value for GGCAGAGCUCAACACAGCGUGGCAAAGUGGCUUUGUCUAGACUGCC [G33U G36U] was 0.05; that for GGCAGAGCUCAACACAGCGUGGCAAAGUGGCUGAGGAUAGACUGCC [U34A C37A] was 0.08.
The value for GGCAGAGCUCAACACAGCGUGGCAAAGUGGCUGAGGGUAGACUGCC [U34A C37G] was 0.04; that for GGCAGAGCUCAACACAGCGUGGCAAAGUGGCUUUGGCUACACUGCC [G33U G40C] was 0.05; that for GGCAGAGCUCAACACAGCGUGGCAAAGUGGCUUUGGCUAUACUGCC [G33U G40U] was 0.14.
With GGCAGAGCUCAACACAGCGUGGCAAAGUGGCUUUGGCUAAACUGCC [G33U G40A], the self-cleavage stood at 0.03.
GGCAGAGCUCAACACAGCGUGGCAAAGUGGCUCUGGCUAGACUCCC [G33C G44C]: the self-cleavage came out at 0.04.
Regarding GGCAGAGCUCAACACAGCGUGGCAAAGUGGCUCUGGCUAGACUUCC [G33C G44U], the self-cleavage was found to be 0.04.
The value for GGCAGAGCUCAACACAGCGUGGCAAAGUGGCUCUGGCUAGACUACC [G33C G44A] was 0.03; that for GGCAGAGCUCAACACAGCGUGGCAAAGUGGCUCUGGCCAGACUGCC [G33C U38C] was 0.04; that for GGCAGAGCUCAACACAGCGUGGCAAAGUGGCUCUGGCGAGACUGCC [G33C U38G] was 0.03.
The value for GGCAGAGCUCAACACAGCGUGGCAAAGUGGCUCUGGCAAGACUGCC [G33C U38A] was 0.04.
The result for GGCAGAGCUCAACACAGCGUGGCAAAGUGGCUUUAGCUAGACUGCC [G33U G35A] reads 0.08.
On to GGCAGAGCUCAACACAGCGUGGCAAAGUGGCUUUUGCUAGACUGCC [G33U G35U], for which the self-cleavage was determined as 0.11.
The result for GGCAGAGCUCAACACAGCGUGGCAAAGUGGCUUUCGCUAGACUGCC [G33U G35C] reads 0.06.
The result for GGCAGAGCUCAACACAGCGUGGCAAAGUGGCUUUGGCCAGACUGCC [G33U U38C] reads 0.08.
The value for GGCAGAGCUCAACACAGCGUGGCAAAGUGGCUUUGGCAAGACUGCC [G33U U38A] was 0.08; that for GGCAGAGCUCAACACAGCGUGGCAAAGUGGCUUUGGCGAGACUGCC [G33U U38G] was 0.04; that for GGCAGAGCUCAACACAGCGUGGCAAAGUGGCUUUGGCUAGACUGAC [G33U C45A] was 0.05.
As for GGCAGAGCUCAACACAGCGUGGCAAAGUGGCUUUGGCUAGACUGUC [G33U C45U], the self-cleavage stood at 0.08.
For the variant GGCAGAGCUCAACACAGCGUGGCAAAGUGGCUUUGGCUAGACUGGC [G33U C45G], the self-cleavage worked out at 0.07.
